Measurements published in PMC11652679.

Molecular target: Mayaro virus E1-E2 heterodimer on the VLP (Mayaro virus) (UniProt Q8QZ72)
Test: cryo-EM structure; single-particle averaging with icosahedral (I1) reconstruction of purified MAYV VLPs, ~1-2 mg/mL in STE buffer, vitrified at 4 °C; final resolution 4.5 Å

For “Mayaro virus E1-E2 heterodimer on the VLP (from UniProt Q8QZ72 807-1242) (complex)”, the stoichiometry N was 3.
